# Molecular target: Mature human mitochondrial heat shock protein family D member 1 (HSPD1) (human), P10809
# Experiment: cryo-EM structure
# Conditions: remark: other sources report otherwise
binder,measurement,value
"Mature human mitochondrial heat shock protein family D member 1 (HSPD1), P10809 27-573 (natural protein) AKDVKFGADARALMLQGVDLLADAVAVTMGPKGRTVIIEQSWGSPKVTKDGVTVAKSIDLKDKYKNIGAKLVQDVANNTNEEAGDGTTTATVLARSIAKEGFEKISKGANPVEIRRGVMLAVDAVIAELKKQSKPVTTPEEIAQVATISANGDKEIGNIISDAMKKVGRKGVITVKDGKTLNDELEIIEGMKFDRGYISPYFINTSKGQKCEFQDAYVLLSEKKISSIQSIVPALEIANAHRKPLVIIAEDVDGEALSTLVLNRLKVGLQVVAVKAPGFGDNRKNQLKDMAIATGGAVFGEEGLTLNLEDVQPHDLGKVGEVIVTKDDAMLLKGKGDKAQIEKRIQEIIEQLDVTTSEYEKEKLNERLAKLSDGVAVLKVGGTSDVEVNEKKDRVTDALNATRAAVEEGIVLGGGCALLRCIPALDSLTPANEDQKIGIEIIKRTLKIPAMTIAKNAGVEGSLIVEKIMQSSSEVGYDAMAGDFVNMVEKGIIDPTKVVRTALLDAAGVASLLTTAEVVVTEIPKEEKDPGMGAMGGMGGGMGGGMF",stoichiometry N,7
